# Article PMC12111036
# Legend:
# [1] = target: Tyrosine kinase receptor B (TrkB) (not stated (human SH-SY5Y or mouse HT22 cells cultured)) (UniProt Q16620); experiment: co-IP; control cells without added BDNF; native lysis; IP of 100 μL whole-cell lysate with anti-TrkB or anti-p75 antibody and protein A&G beads at 4 °C; Western blot with anti-BDNF antibody; band intensity in percent of the control WCL band
# [2] = target: p75 receptor (not stated (human SH-SY5Y or mouse HT22 cells cultured)) (UniProt P08138); experiment: as above
# Sequence of p75 receptor (not stated (human SH-SY5Y or mouse HT22 cells cultured)) (P08138 29-427): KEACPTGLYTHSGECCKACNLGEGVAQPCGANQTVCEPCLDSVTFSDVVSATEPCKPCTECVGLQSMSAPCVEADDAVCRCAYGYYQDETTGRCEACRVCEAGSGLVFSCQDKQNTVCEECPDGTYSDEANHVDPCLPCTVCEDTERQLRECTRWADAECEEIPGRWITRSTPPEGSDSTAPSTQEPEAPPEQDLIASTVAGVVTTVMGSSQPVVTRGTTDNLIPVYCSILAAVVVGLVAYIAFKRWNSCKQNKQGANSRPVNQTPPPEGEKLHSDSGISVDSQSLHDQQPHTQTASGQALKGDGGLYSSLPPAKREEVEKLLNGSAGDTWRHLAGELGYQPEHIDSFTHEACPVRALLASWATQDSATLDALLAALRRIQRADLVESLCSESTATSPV
# [3] = target: Amyloid-β protein 1–42 monomers (Aβ42M) (human) (UniProt P05067); experiment: ELISA; indirect ELISA; Aβ42 species or HSA (2.0 μM) coated on 96-well plates at 4 °C for 12 h, blocked with 5% nonfat dry milk in TBS; BDNF 20 pg/mL added, 37 °C, 24 h; bound BDNF detected with anti-BDNF antibody; binding rate in percent of the BDNF added; also run with CA/EGCG (50 μM) or IG3/BCP (2.0 μM)
# [4] = target: Amyloid-β protein 1–42 protofibrils (Aβ42P) (human) (UniProt P05067); experiment: as above
# [5] = target: Amyloid-β protein 1–42 oligomers (Aβ42O) (human) (UniProt P05067); experiment: as above
# [6] = target: Amyloid-β protein 1–42 fibrils (Aβ42F) (human) (UniProt P05067); experiment: as above
# [7] = target: Tyrosine kinase receptor B (TrkB) (not stated (human SH-SY5Y or mouse HT22 cells cultured)) (UniProt Q16620); experiment: co-IP; cells incubated 48 h with BDNF 1.0 nM, alone or with Aβ42M/Aβ42O 0.2 μM and/or CA/EGCG 100 μM or IG3/BCP 2.0 μM; native lysis; IP with anti-TrkB or anti-p75 antibody and protein A&G beads at 4 °C; Western blot with anti-BDNF antibody; band intensity in percent of the control WCL band
# [8] = target: p75 receptor (not stated (human SH-SY5Y or mouse HT22 cells cultured)) (UniProt P08138); experiment: as above
"BDNF on Co-IP beads, percent of control WCL (no BDNF added) [1]","BDNF on Co-IP beads, percent of control WCL (no BDNF added) [2]",binding rate [3],binding rate [4],binding rate [5],binding rate [6],"BDNF on Co-IP beads, percent of control WCL (BDNF added) [7]","BDNF on Co-IP beads, percent of control WCL (BDNF with Aβ42M and CA/EGCG) [7]","BDNF on Co-IP beads, percent of control WCL (BDNF with Aβ42M and IG3/BCP) [7]","BDNF on Co-IP beads, percent of control WCL (BDNF with Aβ42M) [7]","BDNF on Co-IP beads, percent of control WCL (BDNF with Aβ42O and CA/EGCG) [7]","BDNF on Co-IP beads, percent of control WCL (BDNF with Aβ42O and IG3/BCP) [7]","BDNF on Co-IP beads, percent of control WCL (BDNF with Aβ42O) [7]","BDNF on Co-IP beads, percent of control WCL (BDNF added) [8]","BDNF on Co-IP beads, percent of control WCL (BDNF with Aβ42M and CA/EGCG) [8]","BDNF on Co-IP beads, percent of control WCL (BDNF with Aβ42M and IG3/BCP) [8]","BDNF on Co-IP beads, percent of control WCL (BDNF with Aβ42M) [8]","BDNF on Co-IP beads, percent of control WCL (BDNF with Aβ42O and CA/EGCG) [8]","BDNF on Co-IP beads, percent of control WCL (BDNF with Aβ42O and IG3/BCP) [8]","BDNF on Co-IP beads, percent of control WCL (BDNF with Aβ42O) [8]",Substance
44.1%,31.9%,,,,,,,,,,,,,,,,,,,Endogenous BDNF of the control cells (ligand)
,,> 10%,< 5%,> 10%,< 5%,85%,89.3%,92%,88.3%,72.2%,73.4%,58.1%,70%,73.4%,83.2%,71.9%,62.1%,61.7%,64.3%,Human brain-derived neurotrophic factor (BDNF) (ligand)
